# In PMC5973619:
# T1: Sun2 (human (endogenous in HeLa and RPE-1)), Q9UH99
# T1 chain: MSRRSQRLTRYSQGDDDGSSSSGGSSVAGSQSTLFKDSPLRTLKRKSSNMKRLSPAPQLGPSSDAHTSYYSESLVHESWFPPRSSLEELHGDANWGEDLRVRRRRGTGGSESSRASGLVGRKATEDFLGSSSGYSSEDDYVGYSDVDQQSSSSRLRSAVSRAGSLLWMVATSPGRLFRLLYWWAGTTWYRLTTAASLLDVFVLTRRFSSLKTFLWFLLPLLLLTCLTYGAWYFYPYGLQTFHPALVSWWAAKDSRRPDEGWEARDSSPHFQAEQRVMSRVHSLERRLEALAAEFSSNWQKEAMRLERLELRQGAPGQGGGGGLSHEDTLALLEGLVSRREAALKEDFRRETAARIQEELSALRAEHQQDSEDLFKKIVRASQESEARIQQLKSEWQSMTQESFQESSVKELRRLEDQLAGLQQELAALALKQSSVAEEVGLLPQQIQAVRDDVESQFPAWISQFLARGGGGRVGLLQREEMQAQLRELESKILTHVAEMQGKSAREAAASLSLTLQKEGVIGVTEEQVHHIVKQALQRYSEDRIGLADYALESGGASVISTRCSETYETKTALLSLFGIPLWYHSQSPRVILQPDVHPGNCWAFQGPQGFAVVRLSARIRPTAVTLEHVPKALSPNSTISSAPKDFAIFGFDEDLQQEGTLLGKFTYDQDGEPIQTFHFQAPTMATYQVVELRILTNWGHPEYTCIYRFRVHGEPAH
# Biological target: T1, Sun2 (human (endogenous in HeLa and …))
# Test: cross-linking; HeLa cells in PBS containing .5% formaldehyde for 10min room temperature before lysis; reducing SDS-PAGE and blot for Sun1 and Sun2
# Settings: remark: other sources report otherwise
binder,measurement,value
"Sun2, Q9UH99 1-717 (natural protein) MSRRSQRLTRYSQGDDDGSSSSGGSSVAGSQSTLFKDSPLRTLKRKSSNMKRLSPAPQLGPSSDAHTSYYSESLVHESWFPPRSSLEELHGDANWGEDLRVRRRRGTGGSESSRASGLVGRKATEDFLGSSSGYSSEDDYVGYSDVDQQSSSSRLRSAVSRAGSLLWMVATSPGRLFRLLYWWAGTTWYRLTTAASLLDVFVLTRRFSSLKTFLWFLLPLLLLTCLTYGAWYFYPYGLQTFHPALVSWWAAKDSRRPDEGWEARDSSPHFQAEQRVMSRVHSLERRLEALAAEFSSNWQKEAMRLERLELRQGAPGQGGGGGLSHEDTLALLEGLVSRREAALKEDFRRETAARIQEELSALRAEHQQDSEDLFKKIVRASQESEARIQQLKSEWQSMTQESFQESSVKELRRLEDQLAGLQQELAALALKQSSVAEEVGLLPQQIQAVRDDVESQFPAWISQFLARGGGGRVGLLQREEMQAQLRELESKILTHVAEMQGKSAREAAASLSLTLQKEGVIGVTEEQVHHIVKQALQRYSEDRIGLADYALESGGASVISTRCSETYETKTALLSLFGIPLWYHSQSPRVILQPDVHPGNCWAFQGPQGFAVVRLSARIRPTAVTLEHVPKALSPNSTISSAPKDFAIFGFDEDLQQEGTLLGKFTYDQDGEPIQTFHFQAPTMATYQVVELRILTNWGHPEYTCIYRFRVHGEPAH",stoichiometry N,3
